Measured values as given in publication PMC4615246 (Nucleus, 2015).
Values belong to the binder of their own block, whether it stands above or below them.

Assays:
Test in all cases: LacI/LacO array recruitment in cells
[1] = biological target: T1, LacI-CFP-Nup107 (human, UniProt P57740 1-925)
T1 sequence: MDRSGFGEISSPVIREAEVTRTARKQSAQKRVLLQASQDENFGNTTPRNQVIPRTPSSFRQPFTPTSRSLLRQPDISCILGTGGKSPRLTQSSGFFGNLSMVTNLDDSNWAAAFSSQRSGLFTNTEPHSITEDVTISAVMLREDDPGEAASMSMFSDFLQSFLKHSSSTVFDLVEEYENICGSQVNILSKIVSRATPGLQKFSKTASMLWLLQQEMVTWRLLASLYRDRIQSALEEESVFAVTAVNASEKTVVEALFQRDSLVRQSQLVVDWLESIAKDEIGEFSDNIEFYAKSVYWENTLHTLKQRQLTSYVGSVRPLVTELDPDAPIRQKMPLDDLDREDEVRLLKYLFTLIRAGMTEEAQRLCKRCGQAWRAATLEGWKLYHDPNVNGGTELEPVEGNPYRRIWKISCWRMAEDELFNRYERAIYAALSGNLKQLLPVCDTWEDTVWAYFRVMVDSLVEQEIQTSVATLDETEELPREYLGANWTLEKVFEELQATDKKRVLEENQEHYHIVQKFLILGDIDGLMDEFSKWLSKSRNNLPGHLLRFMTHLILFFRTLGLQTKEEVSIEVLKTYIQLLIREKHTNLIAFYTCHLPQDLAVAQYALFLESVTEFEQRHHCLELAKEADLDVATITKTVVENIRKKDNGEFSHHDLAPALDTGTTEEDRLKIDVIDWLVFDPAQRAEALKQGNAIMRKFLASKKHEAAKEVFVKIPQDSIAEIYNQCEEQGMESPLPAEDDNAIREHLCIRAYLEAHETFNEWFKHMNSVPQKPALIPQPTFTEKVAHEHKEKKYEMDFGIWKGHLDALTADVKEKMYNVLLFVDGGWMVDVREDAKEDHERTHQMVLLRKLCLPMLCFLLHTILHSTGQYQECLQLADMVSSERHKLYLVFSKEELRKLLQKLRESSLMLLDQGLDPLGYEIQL

[2] = biological target: T2, LacI-CFP-Nup50 (human, UniProt Q9UKX7 1-468)
T2 sequence: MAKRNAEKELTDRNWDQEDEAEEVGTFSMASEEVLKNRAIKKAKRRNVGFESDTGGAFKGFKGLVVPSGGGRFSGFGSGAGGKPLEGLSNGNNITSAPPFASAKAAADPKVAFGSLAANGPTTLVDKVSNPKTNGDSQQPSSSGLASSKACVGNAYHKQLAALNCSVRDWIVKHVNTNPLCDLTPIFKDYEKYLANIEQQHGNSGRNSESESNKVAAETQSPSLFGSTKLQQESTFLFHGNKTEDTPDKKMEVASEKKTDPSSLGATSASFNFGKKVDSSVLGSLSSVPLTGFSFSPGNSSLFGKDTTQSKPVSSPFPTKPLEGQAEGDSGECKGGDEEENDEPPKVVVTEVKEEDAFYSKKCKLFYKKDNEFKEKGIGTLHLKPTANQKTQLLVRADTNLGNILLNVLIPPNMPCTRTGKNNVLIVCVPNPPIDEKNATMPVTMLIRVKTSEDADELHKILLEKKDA

[3] = biological target: T3, LacI-CFP-Nup155 (human, UniProt O75694 1-1391)
T3 sequence: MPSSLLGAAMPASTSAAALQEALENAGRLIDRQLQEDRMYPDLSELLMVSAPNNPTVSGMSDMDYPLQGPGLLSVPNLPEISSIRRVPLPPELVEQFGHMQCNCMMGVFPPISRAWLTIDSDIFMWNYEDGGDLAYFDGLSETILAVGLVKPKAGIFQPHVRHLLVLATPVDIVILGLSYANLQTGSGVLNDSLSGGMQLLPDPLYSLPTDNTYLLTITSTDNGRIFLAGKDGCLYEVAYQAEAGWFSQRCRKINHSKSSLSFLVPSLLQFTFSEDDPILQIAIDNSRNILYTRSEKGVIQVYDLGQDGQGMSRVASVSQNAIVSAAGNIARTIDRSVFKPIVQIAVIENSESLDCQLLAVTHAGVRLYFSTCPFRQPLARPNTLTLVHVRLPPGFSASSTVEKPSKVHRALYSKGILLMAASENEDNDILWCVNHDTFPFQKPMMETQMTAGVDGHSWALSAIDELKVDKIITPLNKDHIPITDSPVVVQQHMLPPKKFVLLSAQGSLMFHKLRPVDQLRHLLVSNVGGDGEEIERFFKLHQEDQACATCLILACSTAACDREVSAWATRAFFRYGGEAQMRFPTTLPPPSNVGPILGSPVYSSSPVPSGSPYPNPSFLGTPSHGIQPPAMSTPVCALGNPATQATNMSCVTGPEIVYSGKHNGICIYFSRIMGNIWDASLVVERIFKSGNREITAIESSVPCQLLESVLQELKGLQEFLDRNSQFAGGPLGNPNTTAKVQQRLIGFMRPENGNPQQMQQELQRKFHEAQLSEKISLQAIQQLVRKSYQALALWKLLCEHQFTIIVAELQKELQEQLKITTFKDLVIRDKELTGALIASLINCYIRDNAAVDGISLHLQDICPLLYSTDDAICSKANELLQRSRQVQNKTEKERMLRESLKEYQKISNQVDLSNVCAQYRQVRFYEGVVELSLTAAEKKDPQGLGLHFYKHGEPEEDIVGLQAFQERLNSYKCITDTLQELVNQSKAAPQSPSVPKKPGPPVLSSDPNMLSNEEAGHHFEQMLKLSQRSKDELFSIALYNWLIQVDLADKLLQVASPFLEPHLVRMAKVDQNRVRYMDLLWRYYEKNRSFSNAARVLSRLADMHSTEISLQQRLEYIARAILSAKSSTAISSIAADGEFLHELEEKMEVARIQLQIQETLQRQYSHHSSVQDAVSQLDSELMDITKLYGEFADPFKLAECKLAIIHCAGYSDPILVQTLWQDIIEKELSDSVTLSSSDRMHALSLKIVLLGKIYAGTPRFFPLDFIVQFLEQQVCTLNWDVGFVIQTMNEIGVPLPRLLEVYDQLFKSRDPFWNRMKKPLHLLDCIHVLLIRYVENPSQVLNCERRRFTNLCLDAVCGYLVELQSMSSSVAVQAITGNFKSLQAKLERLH

B1: Nup160 (endogenous) (natural protein)
chain: MLHLSAAPPAPPPEVTATARPCLCSVGRRGDGGKMAAAGALERSFVELSGAERERPRHFREFTVCSIGTANAVAGAVKYSESAGGFYYVESGKLFSVTRNRFIHWKTSGDTLELMEESLDINLLNNAIRLKFQNCSVLPGGVYVSETQNRVIILMLTNQTVHRLLLPHPSRMYRSELVVDSQMQSIFTDIGKVDFTDPCNYQLIPAVPGISPNSTASTAWLSSDGEALFALPCASGGIFVLKLPPYDIPGMVSVVELKQSSVMQRLLTGWMPTAIRGDQSPSDRPLSLAVHCVEHDAFIFALCQDHKLRMWSYKEQMCLMVADMLEYVPVKKDLRLTAGTGHKLRLAYSPTMGLYLGIYMHAPKRGQFCIFQLVSTESNRYSLDHISSLFTSQETLIDFALTSTDIWALWHDAENQTVVKYINFEHNVAGQWNPVFMQPLPEEEIVIRDDQDPREMYLQSLFTPGQFTNEALCKALQIFCRGTERNLDLSWSELKKEVTLAVENELQGSVTEYEFSQEEFRNLQQEFWCKFYACCLQYQEALSHPLALHLNPHTNMVCLLKKGYLSFLIPSSLVDHLYLLPYENLLTEDETTISDDVDIARDVICLIKCLRLIEESVTVDMSVIMEMSCYNLQSPEKAAEQILEDMITIDVENVMEDICSKLQEIRNPIHAIGLLIREMDYETEVEMEKGFNPAQPLNIRMNLTQLYGSNTAGYIVCRGVHKIASTRFLICRDLLILQQLLMRLGDAVIWGTGQLFQAQQDLLHRTAPLLLSYYLIKWGSECLATDVPLDTLESNLQHLSVLELTDSGALMANRFVSSPQTIVELFFQEVARKHIISHLFSQPKAPLSQTGLNWPEMITAITSYLLQLLWPSNPGCLFLECLMGNCQYVQLQDYIQLLHPWCQVNVGSCRFMLGRCYLVTGEGQKALECFCQAASEVGKEEFLDRLIRSEDGEIVSTPRLQYYDKVLRLLDVIGLPELVIQLATSAITEAGDDWKSQATLRTCIFKHHLDLGHNSQAYEALTQIPDSSRQLDCLRQLVVVLCERSQLQDLVEFPYVNLHNEVVGIIESRARAVDLMTHNYYELLYAFHIYRHNYRKAGTVMFEYGMRLGREVRTLRGLEKQGNCYLAALNCLRLIRPEYAWIVQPVSGAVYDRPGASPKRNHDGECTAAPTNRQIEILELEDLEKECSLARIRLTLAQHDPSAVAVAGSSSAEEMVTLLVQAGLFDTAISLCQTFKLPLTPVFEGLAFKCIKLQFGGEAAQAEAWAWLAANQLSSVITTKESSATDEAWRLLSTYLERYKVQNNLYHHCVINKLLSHGVPLPNWLINSYKKVDAAELLRLYLNYDLLEEAVDLVSEYVDAVLGKGHQYFGIEFPLSATAPMVWLPYSSIDQLLQALGENSANSHNIALSQKILDKLEDYQQKVDKATRDLLYRRTL
- percent of transfected cells showing colocalization [1]: 39%
- percent of transfected cells showing colocalization [2]: 4%

B3: Nup53 (endogenous) (natural protein)
chain: MAAFAVEPQGPALGSEPMMLGSPTSPKPGVNAQFLPGFLMGDLPAPVTPQPRSISGPSVGVMEMRSPLLAGGSPPQPVVPAHKDKSGAPPVRSIYDDISSPGLGSTPLTSRRQPNISVMQSPLVGVTSTPGTGQSMFSPASIGQPRKTTLSPAQLDPFYTQGDSLTSEDHLDDSWVTVFGFPQASASYILLQFAQYGNILKHVMSNTGNWMHIRYQSKLQARKALSKDGRIFGESIMIGVKPCIDKSVMESSDRCALSSPSLAFTPPIKTLGTPTQPGSTPRISTMRPLATAYKASTSDYQVISDRQTPKKDESLVSKAMEYMFGW
- percent of transfected cells showing colocalization [3]: 46%
- percent of transfected cells showing colocalization [2]: 6%

Second part, the binder after the results:

- percent of transfected cells showing colocalization [1]: 24%
- percent of transfected cells showing colocalization [2]: 43%
B2: Nup62 (endogenous) (natural protein)
chain: MSGFNFGGTGAPTGGFTFGTAKTATTTPATGFSFSTSGTGGFNFGAPFQPATSTPSTGLFSLATQTPATQTTGFTFGTATLASGGTGFSLGIGASKLNLSNTAATPAMANPSGFGLGSSNLTNAISSTVTSSQGTAPTGFVFGPSTTSVAPATTSGGFSFTGGSTAQPSGFNIGSAGNSAQPTAPATLPFTPATPAATTAGATQPAAPTPTATITSTGPSLFASIATAPTSSATTGLSLCTPVTTAGAPTAGTQGFSLKAPGAASGTSTTTSTAATATATTTSSSSTTGFALNLKPLAPAGIPSNTAAAVTAPPGPGAAAGAAASSAMTYAQLESLINKWSLELEDQERHFLQQATQVNAWDRTLIENGEKITSLHREVEKVKLDQKRLDQELDFILSQQKELEDLLSPLEELVKEQSGTIYLQHADEEREKTYKLAENIDAQLKRMAQDLKDIIEHLNTSGAPADTSDPLQQICKILNAHMDSLQWIDQNSALLQRKVEEVTKVCEGRRKEQERSFRITFD

- percent of transfected cells showing colocalization [1]: 88%
- percent of transfected cells showing colocalization [2]: 32%
B4: Nup85 (endogenous) (natural protein)
chain: MEELDGEPTVTLIPGVNSKKNQMYFDWGPGEMLVCETSFNKKEKSEMVPSCPFIYIIRKDVDVYSQILRKLFNESHGIFLGLQRIDEELTGKSRKSQLVRVSKNYRSVIRACMEEMHQVAIAAKDPANGRQFSSQVSILSAMELIWNLCEILFIEVAPAGPLLLHLLDWVRLHVCEVDSLSADVLGSENPSKHDSFWNLVTILVLQGRLDEARQMLSKEADASPASAGICRIMGDLMRTMPILSPGNTQTLTELELKWQHWHEECERYLQDSTFATSPHLESLLKIMLGDEAALLEQKELLSNWYHFLVTRLLYSNPTVKPIDLHYYAQSSLDLFLGGESSPEPLDNILLAAFEFDIHQVIKECSIALSNWWFVAHLTDLLDHCKLLQSHNLYFGSNMREFLLLEYASGLFAHPSLWQLGVDYFDYCPELGRVSLELHIERIPLNTEQKALKVLRICEQRQMTEQVRSICKILAMKAVRNNRLGSALSWSIRAKDAAFATLVSDRFLRDYCERGCFSDLDLIDNLGPAMMLSDRLTFLGKYREFHRMYGEKRFADAASLLLSLMTSRIAPRSFWMTLLTDALPLLEQKQVIFSAEQTYELMRCLEDLTSRRPVHGESDTEQLQDDDIETTKVEMLRLSLARNLARAIIREGSLEGS
